# Measured values: PMC9700395
# Target: Thrombin (UniProt P00734;P00734 328-363;364-622)
# Assay: ion current rectification nanopipette aptasensor
binder,measurement,value
"N protein aptamer (ssDNA, 5'-NH2) DNA: GCTGGATGTCGCTTACGACAATATTCCTTAGGGGCACCGCTACATTGACACATCCAGC",binding result,no binding
